Molecular target: endogenous DNMT1 (human (endogenous in HeLa, HEK293, …, UniProt P26358 1-1616))
Assay: cell-based or functional assay

endogenous DNMT1 (human, sequence (P26358 whole entry): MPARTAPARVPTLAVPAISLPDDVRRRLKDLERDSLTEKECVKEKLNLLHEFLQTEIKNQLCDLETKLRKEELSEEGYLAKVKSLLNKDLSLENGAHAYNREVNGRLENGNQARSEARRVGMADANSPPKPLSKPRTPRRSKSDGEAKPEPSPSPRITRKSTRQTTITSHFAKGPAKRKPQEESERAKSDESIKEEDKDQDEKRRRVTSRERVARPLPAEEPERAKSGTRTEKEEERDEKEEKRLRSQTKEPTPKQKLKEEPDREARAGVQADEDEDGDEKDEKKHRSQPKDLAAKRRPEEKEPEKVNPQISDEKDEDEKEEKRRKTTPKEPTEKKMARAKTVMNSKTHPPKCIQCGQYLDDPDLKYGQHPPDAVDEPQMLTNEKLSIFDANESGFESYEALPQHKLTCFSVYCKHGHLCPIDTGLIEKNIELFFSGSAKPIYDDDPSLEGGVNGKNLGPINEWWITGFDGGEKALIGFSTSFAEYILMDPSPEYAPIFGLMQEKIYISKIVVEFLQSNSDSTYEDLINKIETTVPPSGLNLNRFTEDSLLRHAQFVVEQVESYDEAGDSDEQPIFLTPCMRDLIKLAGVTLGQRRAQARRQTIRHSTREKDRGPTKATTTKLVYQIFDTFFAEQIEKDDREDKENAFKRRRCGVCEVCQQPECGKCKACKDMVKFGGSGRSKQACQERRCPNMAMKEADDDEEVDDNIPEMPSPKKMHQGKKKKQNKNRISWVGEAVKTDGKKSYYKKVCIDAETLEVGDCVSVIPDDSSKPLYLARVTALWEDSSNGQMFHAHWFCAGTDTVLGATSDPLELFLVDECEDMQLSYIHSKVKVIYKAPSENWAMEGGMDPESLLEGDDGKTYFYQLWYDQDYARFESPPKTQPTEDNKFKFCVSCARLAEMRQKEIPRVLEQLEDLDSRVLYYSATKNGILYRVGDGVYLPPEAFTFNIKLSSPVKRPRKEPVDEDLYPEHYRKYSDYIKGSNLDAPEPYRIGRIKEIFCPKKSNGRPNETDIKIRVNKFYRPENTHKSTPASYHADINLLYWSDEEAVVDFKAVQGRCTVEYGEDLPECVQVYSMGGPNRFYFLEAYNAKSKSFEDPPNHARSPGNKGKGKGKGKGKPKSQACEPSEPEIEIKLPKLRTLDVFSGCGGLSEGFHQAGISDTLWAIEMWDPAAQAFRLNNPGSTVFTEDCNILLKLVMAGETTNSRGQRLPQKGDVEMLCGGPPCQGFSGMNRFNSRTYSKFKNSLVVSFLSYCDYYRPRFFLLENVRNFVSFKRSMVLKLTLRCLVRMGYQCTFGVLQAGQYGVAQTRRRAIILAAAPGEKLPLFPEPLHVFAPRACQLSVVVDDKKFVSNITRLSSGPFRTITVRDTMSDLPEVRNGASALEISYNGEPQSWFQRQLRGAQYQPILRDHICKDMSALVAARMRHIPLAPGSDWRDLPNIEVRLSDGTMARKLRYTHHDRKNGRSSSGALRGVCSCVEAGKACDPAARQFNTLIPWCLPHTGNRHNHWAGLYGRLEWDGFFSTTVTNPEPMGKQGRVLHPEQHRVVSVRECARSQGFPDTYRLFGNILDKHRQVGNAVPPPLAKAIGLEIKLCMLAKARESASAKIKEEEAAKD

half-life of DNMT1 in HeLa cells with cycloheximide, 60 uM UNC1215 (MBT domain inhibitor) against ethanol: ~50%
B1: endogenous PHF20L1a (natural protein, UniProt A8MW92 1-1017, looked up)
chain: MSKKPPNRPGITFEIGARLEALDYLQKWYPSRIEKIDYEEGKMLVHFERWSHRYDEWIYWDSNRLRPLERPALRKEGLKDEEDFFDFKAGEEVLARWTDCRYYPAKIEAINKEGTFTVQFYDGVIRCLKRMHIKAMPEDAKGQVKSQHPLSWCCPIDPAGSCNQSMGSEDWIALVKAAAAAAAKNKTGSKPRTSANSNKDKDKDERKWFKVPSKKEETSTCIATPDVEKKEDLPTSSETFGLHVENVPKMVFPQPESTLSNKRKNNQGNSFQAKRARLNKITGLLASKAVGVDGAEKKEDYNETAPMLEQAISPKPQSQKKNEADISSSANTQKPALLSSTLSSGKARSKKCKHESGDSSGCIKPPKSPLSPELIQVEDLTLVSQLSSSVINKTSPPQPVNPPRPFKHSERRRRSQRLATLPMPDDSVEKVSSPSPATDGKVFSISSQNQQESSVPEVPDVAHLPLEKLGPCLPLDLSRGSEVTAPVASDSSYRNECPRAEKEDTQMLPNPSSKAIADGRGAPAAAGISKTEKKVKLEDKSSTAFGKRKEKDKERREKRDKDHYRPKQKKKKKKKKKSKQHDYSDYEDSSLEFLERCSSPLTRSSGSSLASRSMFTEKTTTYQYPRAILSVDLSGENLSDVDFLDDSSTESLLLSGDEYNQDFDSTNFEESQDEDDALNEIVRCICEMDEENGFMIQCEECLCWQHSVCMGLLEESIPEQYICYICRDPPGQRWSAKYRYDKEWLNNGRMCGLSFFKENYSHLNAKKIVSTHHLLADVYGVTEVLHGLQLKIGILKNKHHPDLHLWACSGKRKDQDQIIAGVEKKIAQDTVNREEKKYVQNHKEPPRLPLKMEGTYITSEHSYQKPQSFGQDCKSLADPGSSDDDDVSSLEEEQEFHMRSKNSLQYSAKEHGMPEKNPAEGNTVFVYNDKKGTEDPGDSHLQWQLNLLTHIENVQNEVTSRMDLIEKEVDVLESWLDFTGELEPPDPLARLPQLKRHIKQLLIDMGKVQQIATLCSV
